Data reported in patent publication US20260263594A1.
Values joined by “and” are separate entries in the source; they are usually repeats but may differ in a detail not shown here. Identical values can stand only once.

Tests used:
[1] = target: Holo-transferrin (Homo sapiens (Human)) (UniProt P02787); test: SPR, Biacore T200, multi-cycle, Tbp-B at 6.17-500 nM; average of 3 runs
[2] = target: Holo-transferrin (Homo sapiens (Human)) (UniProt P02787); test: SPR, Biacore T200, multi-cycle, Tbp-B at 6.17-500 nM; Run-1
[3] = target: Holo-transferrin (Homo sapiens (Human)) (UniProt P02787); test: SPR, Biacore T200, multi-cycle, Tbp-B at 6.17-500 nM; Run-3
[4] = target: Holo-transferrin (Homo sapiens (Human)) (UniProt P02787); test: SPR, Biacore T200, multi-cycle, Tbp-B at 6.17-500 nM; Run-2

Sequence of UniProt P02787 (P02787 20-698 limits assumed, form in doubt): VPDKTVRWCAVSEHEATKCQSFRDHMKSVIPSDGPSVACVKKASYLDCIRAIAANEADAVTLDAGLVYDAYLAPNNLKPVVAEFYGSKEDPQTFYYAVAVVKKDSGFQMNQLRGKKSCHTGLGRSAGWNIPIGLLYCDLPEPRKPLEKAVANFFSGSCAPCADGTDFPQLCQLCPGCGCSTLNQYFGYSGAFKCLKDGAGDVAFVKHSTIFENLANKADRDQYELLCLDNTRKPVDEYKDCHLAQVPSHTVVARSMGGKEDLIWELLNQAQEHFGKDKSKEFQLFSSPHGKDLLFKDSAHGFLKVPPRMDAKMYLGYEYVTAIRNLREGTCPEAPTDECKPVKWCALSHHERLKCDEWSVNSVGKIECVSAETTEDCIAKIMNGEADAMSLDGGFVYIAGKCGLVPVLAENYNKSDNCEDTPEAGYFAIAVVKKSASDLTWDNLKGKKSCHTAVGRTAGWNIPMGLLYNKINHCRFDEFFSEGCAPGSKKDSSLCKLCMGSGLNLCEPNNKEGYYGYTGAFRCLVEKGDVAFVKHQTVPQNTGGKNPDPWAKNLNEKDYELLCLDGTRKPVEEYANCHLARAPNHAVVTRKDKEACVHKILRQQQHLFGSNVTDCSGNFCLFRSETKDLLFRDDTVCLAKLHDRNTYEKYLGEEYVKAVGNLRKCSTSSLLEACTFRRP

recombinant transferrin binding protein B (r-Tbp-B) from Neisseria meningitidis serogroup C / serotype 2a (strain FAM18) (receptor)
Kd [1]: 7.92 nM and 18.6 nM and 19.5 nM
koff [1]: 0.019 s⁻¹ and 0.009 s⁻¹
Kd [2]: 7.55 nM and 16.3 nM and 18.3 nM
koff [2]: 0.0187 s⁻¹ and 0.0081 s⁻¹ and 0.0083 s⁻¹
Kd [3]: 8.1 nM and 19 nM and 22 nM
koff [3]: 0.02 s⁻¹ and 0.009 s⁻¹
Kd [4]: 8.1 nM and 21 nM and 19 nM
koff [4]: 0.019 s⁻¹ and 0.009 s⁻¹
